Changes are numbered by the printed parent chain. Names may count otherwise.
T1: FlagPNPase (Flag-tagged PNP) (Escherichia coli, UniProt P05055 1-711)
T1 construct: polynucleotide phosphorylase (PNPase) of Escherichia coli; also called pFlagPNP; polynucleotide phosphorylase
T1 sequence (looked up): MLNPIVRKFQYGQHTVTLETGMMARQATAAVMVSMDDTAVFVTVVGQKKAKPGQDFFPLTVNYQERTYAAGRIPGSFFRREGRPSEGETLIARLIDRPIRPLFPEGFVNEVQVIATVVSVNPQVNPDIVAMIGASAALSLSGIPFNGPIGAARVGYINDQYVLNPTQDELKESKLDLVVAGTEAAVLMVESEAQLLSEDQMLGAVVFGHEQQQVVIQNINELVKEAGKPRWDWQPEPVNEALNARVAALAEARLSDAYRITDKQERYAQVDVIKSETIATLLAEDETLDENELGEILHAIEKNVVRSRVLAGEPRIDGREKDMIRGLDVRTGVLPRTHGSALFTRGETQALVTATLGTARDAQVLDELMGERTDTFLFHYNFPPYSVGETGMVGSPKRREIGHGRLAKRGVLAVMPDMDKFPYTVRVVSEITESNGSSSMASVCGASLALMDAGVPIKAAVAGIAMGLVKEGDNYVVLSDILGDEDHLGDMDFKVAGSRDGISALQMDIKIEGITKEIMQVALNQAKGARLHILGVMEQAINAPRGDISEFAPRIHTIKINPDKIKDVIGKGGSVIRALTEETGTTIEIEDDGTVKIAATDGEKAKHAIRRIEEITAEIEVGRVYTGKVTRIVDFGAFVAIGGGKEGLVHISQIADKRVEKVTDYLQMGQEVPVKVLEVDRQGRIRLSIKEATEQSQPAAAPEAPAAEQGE

T2: FlagRhlB^P238L (Flag-tagged RhlB^P238L) (Escherichia coli, UniProt P0A8J8 1-421, P238L)
T2 sequence: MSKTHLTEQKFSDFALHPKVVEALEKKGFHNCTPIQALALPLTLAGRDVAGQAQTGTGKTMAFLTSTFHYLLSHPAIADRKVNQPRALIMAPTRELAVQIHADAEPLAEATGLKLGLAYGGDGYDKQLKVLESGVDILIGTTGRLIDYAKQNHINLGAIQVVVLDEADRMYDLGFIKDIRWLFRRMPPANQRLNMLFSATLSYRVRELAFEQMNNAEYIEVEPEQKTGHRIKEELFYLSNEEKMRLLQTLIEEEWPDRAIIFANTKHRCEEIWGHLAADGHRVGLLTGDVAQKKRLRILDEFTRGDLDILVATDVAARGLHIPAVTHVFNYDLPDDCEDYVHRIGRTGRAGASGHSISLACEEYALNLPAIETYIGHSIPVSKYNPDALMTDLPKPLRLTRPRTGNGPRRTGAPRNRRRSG

B1: FlagRhlB^wt (Flag-tagged wild-type RhlB) (enzyme, Escherichia coli, UniProt P0A8J8 1-421, looked up)
chain: T2 sequence with L238P
notes: RNA helicase B (RhlB) of Escherichia coli; also called pFlagRhlB^wt
B2: FlagRhlB^P238L (Flag-tagged RhlB^P238L) (enzyme, Escherichia coli, UniProt P0A8J8 1-421, looked up)
chain: T2 sequence
notes: RNA helicase B (RhlB) of Escherichia coli with P238L, introduced into pFlagRhlB by site-directed mutagenesis; also called pFlagRhlB^P238L
B3: FlagPNPase (Flag-tagged PNP) (enzyme)
chain: T1 sequence (looked up)

How the values were obtained:
[1] = biological target: T1, FlagPNPase (Flag-tagged PNP); assay: SPR; Biacore X; purified FlagPNPase immobilised on a CM5 chip by amine coupling; 0.75 to 24 uM FlagRhlB injected at 10 ul/min, 25 °C; conditions: both partners purified
[2] = biological target: B3; assay: SPR
[3] = biological target: B3; assay: SPR
[4] = biological target: T2, FlagRhlB^P238L (Flag-tagged RhlB^P238L); assay: SPR
[5] = biological target: T2, FlagRhlB^P238L (Flag-tagged RhlB^P238L); assay: SPR; remark: listed apart in the source

Binder: B1
- kon [1]: 1260 M⁻¹ s⁻¹
- Kd [2]: 1.67 µM
- koff [3]: 0.0021 s⁻¹

Binder: B2
- kon [1]: 311 M⁻¹ s⁻¹

Binder: B3
- Kd [4]: 6.64 µM
- koff [5]: 0.00207 s⁻¹
